Results on 38 sequences are retold here after the supplement of paper PMC7877785.

A short description of this series: self-splicing fitness, log relative to wild type (ln ratio); higher = more splicing; Tetrahymena group I intron in knt gene, E. coli kanamycin selection, DiMSum; sequences stand for … in CUCUCU…GGAGGGAAAAGUUAUCAGGCAUGCACCUGGUAGCUAGUCUUUAAACCAAUAGAUUGCAUCGGUUUAAAAGGCAAGACCGUCAAAUUGCGGGAAAGGGGUCAACAGCCGUUCAGUACCAAGUCUCAGGGGAAACUUUGAGAUGGCCUUGCAAAGGGUAUGGUAAUAAGCUGACGGACAUGGUCCUAACCACGCAGCCAAGUCCUAAGUCAACAGAUCUUCUGUUGAUAUGGAUGCAGUUCACAGACUAAAUGUCGGUCGGGGAAGAUGUAUUCUUCUCAUAAGAUAUAGUCGGACCUCUCCUUAAUGGGAGCUAGCGGAUGAAGUGAUGCAACACUGGAGCCGCUGGGAACUAAUUUGUAUGCGAAAGUAUAUUGAUUAGUUUUGGAGUACUCGUGGUCG
The method, boiled down:
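A randomised library covering all eight P1ex-region intron nucleotides was built with the intron in the knt kanamycin-resistance gene on pET-22b(+) and held in E. coli BL21(DE3). Cells were grown overnight at 37°C or 30°C on LB agar, with or without 25 μg/mL kanamycin, plus 100 μg/mL carbenicillin, 50 μM IPTG and 0.2% rhamnose, and pooled colonies were amplicon-sequenced on an Illumina HiSeq 2500. DiMSum fitness is the error-weighted combination of wild-type-normalised replicate fold changes, kanamycin versus none.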

± gives the uncertainty stated by the source.

On to UCCAAGCAAUAUUACGUAGC, for which the “self-splicing fitness (ln)” value is, setting by setting: (30 °C) -3.38 ± 0.14; (37 °C) -1.38 ± 0.11.
Taken in the same sequence, the figures for UCCAAGCAAUAUUACGUCCA were -1.56 ± 0.11 and -0.691 ± 0.11.
UCCAAGCAAUAUUACGUCGU: the “self-splicing fitness (ln)” value runs as follows: (30 °C) -0.899 ± 0.073; (37 °C) -0.178 ± 0.085.
For UCCAAGCAAUAUUACGUCUG, in that order: -4 ± 0.23 and -3.01 ± 0.2.
Taken in the same sequence, the figures for UCCAAGCAAUAUUACGUGGC were -3.9 ± 0.27 and -2.97 ± 0.33.
For UCCAAGCAAUAUUACGUGGU, the “self-splicing fitness (ln)” value (30 °C) is -2.96 ± 0.1 and the “self-splicing fitness (ln)” value (37 °C) was -1.45 ± 0.092.
For UCCAAGCAAUAUUACGUUAC, in that order: -4.16 ± 0.26 and -3.2 ± 0.32.
Taken in the same sequence, the figures for UCCAAGCAAUAUUACGUUCA were -1.4 ± 0.13 and -0.51 ± 0.11.
Taken in the same sequence, the figures for UCCAAGCAAUAUUACGUUCU were -2.62 ± 0.1 and -3.9 ± 0.29.
For UCCAAGCAAUAUUACGUUUC, the “self-splicing fitness (ln)” value was -3.37 ± 0.2 (30 °C) and -2.76 ± 0.26 (37 °C).
On to UCCAAGCAAUAUUACGUUUU, for which the “self-splicing fitness (ln)” value runs as follows: (30 °C) -4 ± 0.13; (37 °C) -2.91 ± 0.14.
Taken in the same sequence, the figures for UCCCAGCAAUAUUACGAAAC were -3.52 ± 0.44 and -1.93 ± 0.46.
As for UCCCAGCAAUAUUACGAAGA, the “self-splicing fitness (ln)” value was -0.348 ± 0.084 (30 °C) and -0.266 ± 0.09 (37 °C).
Taken in the same sequence, the figures for UCCCAGCAAUAUUACGACGG were -2.95 ± 0.15 and -2.15 ± 0.14.
For UCCCAGCAAUAUUACGAGAG, in that order: -3.41 ± 0.29 and -2.14 ± 0.21.
Taken in the same sequence, the figures for UCCCAGCAAUAUUACGAGGG were -3.14 ± 0.17 and -3.02 ± 0.21.
As for UCCCAGCAAUAUUACGCCCG, the “self-splicing fitness (ln)” value was -3.3 ± 0.21 (30 °C) and -2.65 ± 0.31 (37 °C).
For UCCCAGCAAUAUUACGCGAG, in that order: -3.41 ± 0.14 and -2.91 ± 0.2.
In the case of UCCCAGCAAUAUUACGCGCC, the “self-splicing fitness (ln)” value (30 °C) was -3.11 ± 0.35 and the “self-splicing fitness (ln)” value (37 °C) is -1.29 ± 0.21.
Taken in the same sequence, the figures for UCCCAGCAAUAUUACGGCCG were -3.44 ± 0.27 and -2.02 ± 0.32.
Taken in the same sequence, the figures for UCCCAGCAAUAUUACGGCCU were -2.43 ± 0.16 and -0.901 ± 0.17.
For UCCCAGCAAUAUUACGGUAC, in that order: -3.29 ± 0.2 and -1.71 ± 0.17.
On to UCCCAGCAAUAUUACGUGAG, for which the “self-splicing fitness (ln)” value reads like this: (30 °C) -1.52 ± 0.08; (37 °C) -0.669 ± 0.083.
Taken in the same sequence, the figures for UCCGAGCAAUAUUACGAUAU were -1.5 ± 0.22 and -2.46 ± 0.41.
Turning to UCCGAGCAAUAUUACGCAAG, the “self-splicing fitness (ln)” value is, setting by setting: (30 °C) -3.27 ± 0.26; (37 °C) -1.77 ± 0.32.
As for UCCGAGCAAUAUUACGCCGA, the “self-splicing fitness (ln)” value is -1.56 ± 0.23 (30 °C) and -0.047 ± 0.16 (37 °C).
Regarding UCCGAGCAAUAUUACGCGAU, the “self-splicing fitness (ln)” value (37 °C) was -2.3 ± 0.35.
As for UCCGAGCAAUAUUACGCGUC, the “self-splicing fitness (ln)” value reads like this: (30 °C) -3.74 ± 0.37; (37 °C) -1.53 ± 0.26.
As for UCCGAGCAAUAUUACGCGUG, the “self-splicing fitness (ln)” value was -2.6 ± 0.12 (30 °C) and -1.3 ± 0.1 (37 °C).
With UCCGAGCAAUAUUACGGACC, the “self-splicing fitness (ln)” value runs as follows: (30 °C) -2.53 ± 0.28; (37 °C) -1.47 ± 0.36.
UCCGAGCAAUAUUACGGCAG: the “self-splicing fitness (ln)” value runs as follows: (30 °C) -3.55 ± 0.38; (37 °C) -1.44 ± 0.34.
With UCCGAGCAAUAUUACGGCCA, the “self-splicing fitness (ln)” value by setting is: (30 °C) -0.297 ± 0.1; (37 °C) -0.233 ± 0.12.
Taken in the same sequence, the figures for UCCGAGCAAUAUUACGGCCU were -3.24 ± 0.3 and -2.33 ± 0.38.
For UCCGAGCAAUAUUACGGCUC, the “self-splicing fitness (ln)” value (37 °C) is -0.168 ± 0.28.
In the case of UCCGAGCAAUAUUACGUACA, the “self-splicing fitness (ln)” value (30 °C) was -2.89 ± 0.33.
Take UCCGAGCAAUAUUACGUACC: the “self-splicing fitness (ln)” value by setting is: (30 °C) -2.2 ± 0.2; (37 °C) -1.93 ± 0.37.
For UCCGAGCAAUAUUACGUUAG, in that order: -3.14 ± 0.15 and -2.56 ± 0.24.
For the sequence UCCUAGCAAUAUUACGAACA, the “self-splicing fitness (ln)” value is, setting by setting: (30 °C) -2.9 ± 0.29; (37 °C) -1.3 ± 0.22.
